Residue numbers refer to the chain shown, from its start.
B1: ADI-41408 (antibody, V domains shown)
VH: QVQLVESGAEVKKPGESLKISCRDSGYSFSSFWIGWVRQMPGKGLEWVGIIYPGDSDIRYSPSFQGRVTISADKSISTAYLQWRSLKASDSAMYYCARSEKLGSFDRWGQGTLVTVSS
VL: DIQMTQSPSSLSASVGDRVTITCQANRDISNCLNWYQQRPGKAPELLIYDASYLETGVPSRFTGSGSGTDFTFTISSLQPEDIATYYCQQYDNLLFTFGPGTKVEIK
B2: ADI-41357 (antibody, V domains shown)
VH: EVQLVESGGGLVQPGGSLRLSCAASGFTFSTYGMNWVRQAPGKGLEWVSYIGGSGRIIYYADSVKGRFTISRDNAKNSLYLQMNSLRAEDTAVYYCARDQHIVLVTGSTPDYWGQGTLVTVSS
VL: EIVLTQSPSSLSASVGDRVTITCRASHAISNYLAWFQQKPGKAPKSLIYAASTLQSGVPSKFSGSGSGTDFTLTISSLQPEDFATYYCQQYSSYPLTFGGGTKVEIK
B3: ADI-41399 (antibody, V domains shown)
VH: QVQLVQSGAEVKKPGASVKVSCKASGYTFTTFAIHWVRQAPGQRLEWMGWINAGNGNTKYSQKFQGRVTITRDTSASTAYMELSSLRSEDTAVYYCARPEISSSSLNEKDDYWGQGTLVTVSS
VL: QPVLTQPASVSGSPGQSITISCTGTSSDVGAYDFVSWYQQHPGKAPKFMIYEVSHRPSGVSNRFSGSKSGNTASLTISGLQAEDEADYYCSSYTTSNTLVFGGGTKLTVL
B4: ADI-41362 (antibody, V domains shown)
VH: EVQLVESGGGLVQPGGSLRLSCAASGFTFSDHWMNWVRQTPGKGLEWVANIKPDGRETYYVDSVKGRFTISRDNSKKSVYLQMNSLRAEDTAVYYCVRDGHIVVVTAVPPGFFDLWGRGTLVTVSS
VL: DIQVTQSPSSLSASVGDRVTITCQASQDLTKYLNWYQQKPGKAPKLLIYDISNLETGVPSRFSGSGFGTEFTLTISSLQPEDVATYYCQQYQNLPYTFGQGTKVEIK
B5: ADI-41390 (antibody, V domains shown)
VH: EVQLVESGGGLVKPGGSLRLSCAASGFSSSSYFMNWVRQAPGKGPEWVSSISGSSSFINYADSVKGRFTISRDNAKNSLYLQMNSLRAEDTAVYYCARAVLPAGVGGYWFDSWGQGTLVTVSS
VL: QSVVTQPPSVSGAPGQRVTISCTGSSSNIGAGYDVHWYQHLPGRAPKLLIYGNSNRPSGVPDRFSGSKSGTSASLVITGLQAEDEADYCCQSYDSSLSGAVFGGGTQLTVL
B6: ADI-41351 (antibody, V domains shown)
VH: QVQLVQSGGGLVQPGGSLRLSCSASGFTFSSKSMHWVRQAPGKGLEYVSAIRSDGVSTYYGDSVKGRFTVSRDNAKNTVYLRMSSLRREDTAVYYCVKGPYGDFQYNWFDTWGQGTLVTVSS
VL: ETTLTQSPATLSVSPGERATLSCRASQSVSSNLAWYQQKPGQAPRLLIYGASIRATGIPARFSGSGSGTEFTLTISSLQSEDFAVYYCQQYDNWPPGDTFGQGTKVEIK
B7: ADI-41359 (antibody, V domains shown)
VH: EVQLVESGGGLVKPGGSLRLSCAASGFTISGYSMDWVRQAPGKGLEWVSSISSSSSYIHYADSVKGRFTISRDNAKNSLYLQMNSLRAEDTAVYYCATNPREGGAFDIWGQGTTVTVSS
VL: QSVLTQPPSMSGAPGQRVTISCTGSSSNIGAGYDVHWYQQLPGTAPKLLIYNNSNRPSGVPDRFSASKSGTSASLAITGLQAEDEADYYCQSYDSSLSGYVFGTGTRVTVP
B8: ADI-41396 (antibody, V domains shown)
VH: EVQLVESGGGLVNPGGSLRLSCVVSGFAFSSYGMNWVRQAPGKGLEWVSSISASSSYIDYADSVKGRFIISRDNAKNSLHLQMNSLRAEDTAVYYCARLGYDSSTYYTNWFDPWGRGTLVTVSS
VL: B7 VL with L4V, P7E, M10V, A31T, T44A, N52G, F64I, A66G, R107K, P111L
B9: ADI-41364 (antibody, V domains shown)
VH: EVQLLESGAEVKKPGASVKVSCKASGYTFTDHSIHWVRQAPGRGLEWMGWFNPHTGVTDYAQKFQGWVTMTSDTSISTAYMELSSLKSDDTAIYFCARDQWETDGAYFLDYWGQGTLVTVSS
VL: QSALTQPASVSGSPGQSITISCTGTSSDVGNFKLVSWYQQHPGKAPKLMIYEGNKRPSGVSNRFSGSKSGNTASLTISGLQAEDEADYYCCSSAVSSTFFGTGTKLTVL
B10: ADI-41394 (antibody, V domains shown)
VH: QVQLVQSGAEVKKPGSSVKVSCKASGGTFNTYAISWVRQAPGQGLEWMGGIIPILGVSNYAQRFQGRVTFSADELTNTAYMELSSLRSEDTAVYFCARPVGAYTLGDAFEIWGRGTTVTVSS
VL: QPVLTQSSSASASLGSSVKLTCTLSSGHSDFIIAWHQQQPGKAPRYLMKFEGNGRYSKGSGIPDRFSGSSSGADRCLTISNLQSEDEADYYCETWDSNTHVVFGGGTKLTVL
B11: ADI-41386 (antibody, V domains shown)
VH: QVQLVQSGAEVKKPGASVKVSCKASGYTFTGNYIHWVRQAPGQGLEWMGGINPNSGATNYARKFQGRISMTRDTSINTAYMEVSSLRSDDTATYYCARDAPPVVIPAAIHWFDAWGQGTLVTVSS
VL: SYELTQPPSASGTPGQRVTISCSGSSSNIGRNTVNWYQQFSGTAPRLLIYRTNQRPSGVPDRFSGSKSGTSASLVISGLQSEDEADYYCASWHDTLNDVVFGGGTKLTVL
B12: ADI-41382 (antibody, V domains shown)
VH: EVQLVESGGGLVQPGRSLRLSCAASGFTFDDYAMHWVRQAPGKGLEWVSGISWSGDTRGYAESVKGRFTITRDNAKKYLYLQMNSLRAEDTAFYYCAKDAYYFGSGNEKFYYGMDVWGQGTTVTVSS
VL: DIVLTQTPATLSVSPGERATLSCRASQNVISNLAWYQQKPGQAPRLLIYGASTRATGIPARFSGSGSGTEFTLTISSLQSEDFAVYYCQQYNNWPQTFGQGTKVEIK
B13: ADI-41353 (antibody, V domains shown)
VH: EVQLVESGVEVKKPGESLKISCRGSGYSFHNYWIAWVRQKPGKGLEYMGTIYVDDSDTIYSPSFQGEVTISADKSINTAYLQWNSLKASDTANYYCARQMDFYFDVWGRGTLVTVSS
VL: SYELTQPPSVSVSPGQTARITCSGDPLPRESAYWYQQKPGQAPVVVIFNDIERPLGIPERFSGSRSGTTVTLTISGAQAEDEADYYCQSADSRKTFVFGSGTKLTVL
B14: ADI-41358 (antibody, V domains shown)
VH: EVQLVESGGGLVKPGGSLRLSCEASGFTLTSYSMNWVRQAPGKGLEWVSSISSSSTYIHYADSVKGRFTISRDNAKNSLYLQMNSLRAEDTAVYYCARDKVMVTKYNGMDVWGQGTTVTVSS
VL: QSVLTQPPAVSGAPGQRVTISCTGSSSNIGAGHDVHWYQQLPGTAPKLLIYGNSNRPSGVPDRFSGSKSGTSASLAITGLQAGDEADYYCQSYDSSLSGSLFGGGTKLTVL
B15: ADI-41397 (antibody, V domains shown)
VH: EVQLVESGGGLVKPGGSLRLSCAASGFKFSSYYLNWVRQAPGKGLEWVSSISGGSSYINYADSVKGRFTISRDNAKNTLDLQMSNLRAEDTAVYYCARVVGATGPLYFDLWGRGTLVTVSS
VL: B7 VL with M10V, L41F, N52G, S54N, A66G, T104A, R107K, P111L
B16: ADI-41363 (antibody, V domains shown)
VH: QVQLVQSGAEVKKPGSSVKVSCKASGGTFSSYAITWVRQAPGQGLEWMGGIIPLFGTAKYAQQFQGRVTITADESTSTAYMELSSLRSEDTAVYYCARDGEVCTNGFCWFLDWGLGTLVTVSS
VL: DIRVTQSPSSLSASVGDRVTITCQASQDISNYLNWYQQKPGKAPKLLIYDASKLETGVPSRFSGSGSGTDFTFTISSLQPEDIATYYCQNYGNFPHFGGGTKLEIK
B17: ADI-41380 (antibody, V domains shown)
VH: QVQLVQSGAEVKKPGESLKISCKGSGYSFTSYWIGWVRQMPGKGLEWMGIIYPGDSDTRYSPSFQGQVTISADKSISTAYLQWSSLKASDTAMYYCASSRAYYDILTGYYVASAETQTKAAFDIWGQGTTVTVSS
VL: B16 VL with R3Q, K53N, T72S, N90Q, G92D, F94L, P95I, H96T, G99Q, L103V
B18: ADI-21052 (antibody, V domains shown)
VH: QVQLVQSGAEVKKPGASVKVSCKASGYTFTSYGISWVRQAPGQGLEWMGWISAYNGNTNYAQNLQGRVTMTTDTSTSTAYMELRSLRSDDTAMYYCARDAFSRVGYWYFDLWGRGTLVTVSS
VL: SYELTQPPSVSVAPGQAARITCGGNNIGSKTVHWYQQKPSQAPVLVVYDDSDRPSGIPERFSGSNSGNTATLTISRVEAGDEADYYCQVWDSSGDHPVFGGGTKLTVL
notes: also called Ab 300
B19: ADI-21059 (antibody, V domains shown)
VH: QVQLVQSGAEVKRPGDSLKISCKGSGYSFTTSWIGWVRQVPGKGLEWMGIIYPGDSNTVYGPSLQGQVTISADKSTNTAYLQWSSLKASDTAMYYCARRDGGTDYLSDAFDIWGQGTFVTVSS
VL: DIQMTQSPSSLSASVGDRVTITCRTSQNIVIYLNWYQQKPGKAPKLLIFAASSLPSGVPSRFSGSGSGTDFTLTISSLQPEDVATYYCQQSYNTPGTFGQGTKVDIK
B20: ADI-21051 (antibody, V domains shown)
VH: QVQLVESGPGLVRPSQTLSLTCNVSGDFISRGTYYWSWIRQSAGKGLEWIGRIYTSGITDYSPSLKSRVTISVDTSKNQFFLKLASVTAADTAVYYCARGRGYYDSPWGQGTLVTVSS
VL: ETTLTQSPATLSLSPGERATLSCRASESVSTFLGWYQQKPGQAPRLLIYDASNRASGVPARFSGSGSGTDFTLTISSLEPEDFAVYYCQLRNKWLTFGPGTKVDIK
B21: ADI-21063 (antibody, V domains shown)
VH: EVQLVESGGGLVQPGGSLRLSCSASGFTFRTYVMQWVRQAPGKGLEYVSAISSDGGSTDYADSVKGRFTVSRDNSKNTLYLQMSSLRAEDTAVYYCVKRGEGGNDYLYYYMDVWGKGTTVTVSS
VL: DIQVTQSPSSLSASVGDRVTITCRASQSITNYLNWYQQKPGKAPKVLIYAASSLQSGVPSRFSGSGSGTDFTLTISSLQPEDFATYYCQQSYLRPPTFGGGTKVEIK

What follows are binders tested against RSV fusion glycoprotein (RSV F) on RSV-A2 virus (respiratory syncytial virus, UniProt P03420 26-574) (assay: cell-based or functional assay).

Binder	Neutralization IC50 (RSV subtype A)
B1	> 25 mg/L
B2	> 25 mg/L
B3	> 25 mg/L
B4	0.911 mg/L
B5	0.62 mg/L
B6	0.149 mg/L
B7	> 25 mg/L
B8	1.37 mg/L
B9	0.14 mg/L
B10	> 25 mg/L
B11	> 25 mg/L
B12	0.02 mg/L
B13	> 25 mg/L
B14	0.389 mg/L
B15	0.09 mg/L
B16	0.143 mg/L
B17	0.0549 mg/L

These binders were tested against RSV prefusion F (preF), subtype B (respiratory syncytial virus, subtype B) (assay: BLI, IgG).

Binder	Kd
B18	0.11 nM
B19	9.43 nM
B20	0.335 nM
B21	0.777 nM

These binders were tested against T1, RSV postfusion F (postF), subtype A (respiratory syncytial virus, subtype A, UniProt P03420 26-513) (assay: BLI, IgG).
T1 construct: also called F ΔFP; Postfusion subtype A

Binder	Kd	binding result
B18	18.4 nM	
B19		no binding
B20		no binding
B21		no binding

The binders below were run against RSV prefusion F (preF), subtype A (respiratory syncytial virus, subtype A, UniProt P03420 26-513) (assay: BLI, IgG).

Binder	Kd
B18	0.126 nM
B19	3.05 nM
B20	0.292 nM
B21	0.834 nM
